Assay: soluble on expression in E. coli; label from the status in PepcDB or PDB records

| Sequence | soluble on expression in E. coli |
| --- | --- |
| MVEVVGVRFREAGHIYYFAPGKSEYIYNEKVLVESQQSKQLATVAIPKKTVDSDDLPEDLKPILNKATANDLEKEQKNLADAEAAKSIANEKIRAHDLKMKLVRVEYTFDRSKMIFYFTADGRIDFRELVKDLAAIFRTRIELRQIGVRDEAKILGGIGPCGRQLCCSTFLGDFMPVSIKMAKDQGLSLNPVKISGLCGRLMCCLKYENDEYEAAKKELPDYGKEVITPDGKGKVVGLNLLSRIVKVRLHGREIAADYDYEEIKEATAKVAAEKGDQNGLEHHHHHH | soluble |
| MVGAYSYSEGLETLVENGTITSQSTLQQWLEAELSYGAIRLEAAVMVRAYQAATMDDMETLCYWNLWLSAARETQELRNSSWQMGRSLMQLLGKIQPEILPLANAVGNPCNYAIAFGIASAHWQINIQAALLAYLHSWATNLITAGVKLIPLGQTAGQELLLQLQPLISHATVEIMSLKDDELSCCSWGLSLASMQHETQYTRLFRSLEHHHHHH | not soluble |
| MVGGDGATRREQSLCDSCYFAAFDLVDAPDTIEVMVCARCGAVHRGNRWVDIGADDYVDVAVAETTEALGVHLEAEDVDWEVRPEKLDDNTVRMHATFTGVVRDTHRTEQVAVTVKVSRQTCQRCGRIAGESYASTVQVRAVGRDPTSEETDRAAELAHRIVADMEATGDREAFVTEIGDAESGTDIKLSTTKIGLKLARKLVEEFGGDFEDHETLITEDDDGNEVYRVTYAVRLPEFVPGDVVDIAADDGGPVLVQSNHGNLKGVRVTTGEPYEASFEDGDSPDARKLGAVADATEATVVTVEDDAAIQILDPDTYEAQTVARPDYVDPDASTVPALKSRAGLHVLPDALEHHHHHH | not soluble |
| MVHYKLSYFPIRFAGEIPRQILAYAGQKFEDHRIPQADWPALKSTMPFGTLPVLYQDGKPLGQSHAISRFLARQFGINGRCPWEEAQVNAIADQFKDYLNDIRSYNLVKMGFAQGDADALYKDTFLPNFKKNYQFFTNFLKASGSGFLIGDSVTWVDLLIAQHTSDLLSDSGSVFAASQSLLDEFPELKAHQKKIHSIPNIKKWVETRPVTPF | not soluble |
| MVIERSCMGDLDKNPAVKAMVVFRKAMRTIDAQVAPSYKNNGLTQTQFAVLDVLYAKGEMTISRLIASILATSGNMTVVIKNMERNGWIYRSPNPDDRRASVVGLTEVGKQLIQKALPDHIAMVEAAFSVMTEEEQLVLIDLLKKFKSL | not soluble |
| MVIHCKMFNNQRKTLAKEYHELYMNNNTETRKNKHLNERERYAIELYLKEKYTVTEIAKRLGRHRRTIEREITRGTIYLQNSDLTYRKEYCADVAQRRYVENGKNKGPRLKIGNDHELVRYIESKIINEKYSPDAVIGQIKAKGLKFKTSICTKTLYNYIDRGDVFLRLTNKYLPVKKDGKKRIYQRVKKIALKNLKGSSIEERPKEVNDRKEYGHWEMDCVVGRKNSAAVLLVLSERKTREEIILKLPDKTQESVIKAIDELERKYRRKFREKFKTITVDNGTEFLDYRGIEKSKTEPGKDRTKVYYAHPYSSWERGTNENINKLIRRFIPKGTDISKVSKAKIKSIERWINEYPRRMFGYRSAIEMAV | not soluble |
| MVIINTAAYHFVSITQPQTLADQIRAHGEIAGLKGTVLIANEGINLFLAGEKEAINAFYAWLCADVRFAALHVKYSVSAYKPFARFKVKVRPEIISFRRGDISPLQVRAPGVSAHTLRDWLRRGCDDNGRRLVMLDARNQQEIAYGTFSGAMTLPITKFTGFPGALAHYRDLLSDATVVSFCTGGIRCEKAVLWMRADGMDNVLQLEGGILGYFEQVGGEGYDGRCFVFDKRVALDPQLRPLYDMRVVASFARSEISLEHHHHHH | not soluble |
| MVILMRAPIVEVFSSIQGEGLLVGRRQIFVRFAGCNLNCSYCDTPESRDPSAGRLFTAPELTEIIEGLITPDFHSISITGGEPLLYPDFITELLEESPHRTLLETNGSLPSNAERIAHLFDYASVDIKIAEHFSDNLRSGTTESDISSPGDLIDREIQVINILISRGVNTYCKVVVMPTTGAGYIGALAERLLECVDEPERLPLVIQPCSPPEQWAQNTPRLLEMSQEAGKYMDVYVIPQMHRALGLR | soluble |
| MVIMVNTEYIPGKRIVKVFGTIWGITVRSRGLGGNLVAGLRSLAGGEIKEYTKMLSDARNTAMERLQSAAEQIGANAVINVRFDSSDIGQVMTEIVAYGTAVLVE | soluble |
